Data published in the supplement of paper PMC9732359.
± gives the uncertainty stated by the source.

Test: protein stability index of a GFP-peptide fusion (yeast GPS) (PSI 1-4); higher = more stable; sorted into four equal gates, so the index is relative within each strain
Method in brief: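 Mid-log yeast cultures in leucine-free medium, carrying a pooled plasmid library, were sorted into four equal gates by their GFP/Cherry fluorescence ratio. Each plasmid expressed Cherry along with GFP fused upstream of a tiled 17-residue yeast protein peptide. Plasmids recovered from each gate were PCR-amplified and Illumina-sequenced, with reads assigned to strains by barcodes. The protein stability index was obtained by summing each gate's read frequency weighted by its gate number.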

| Sequence | protein stability index (doa10∆) | protein stability index (pdr5∆) | protein stability index (san1∆) | protein stability index (ubr1∆) |
| --- | --- | --- | --- | --- |
| NQASTSKRVYKILSPTM [CDC53] | 2.58 ± 0.062 | 2.57 ± 0.05 | 2.54 ± 0.051 | 2.59 ± 0.067 |
| QDYYIIGANIYQSPTIF [MED6] | 2.33 ± 0.056 | 2.42 ± 0.055 | 2.15 ± 0.07 | 2.46 ± 0.029 |
| NPNTNTNSNNTPLQSQL [PGD1] | 2.91 ± 0.071 | 2.96 ± 0.066 | 2.88 ± 0.058 | 2.98 ± 0.07 |
| KGIAKEHAKWGPAAAIE [RPB3] | 3.11 ± 0.12 | 3.32 ± 0.1 | 3.06 ± 0.13 | 2.9 ± 0.055 |
| KEIRAFDKLLNIPRREL [SRB4] | 2.6 ± 0.08 | 2.46 ± 0.07 | 2.73 ± 0.08 | 1.95 ± 0.071 |
| VPPVENFPVRQWSIEIV [TAF14] | 3.15 ± 0.064 | 2.55 ± 0.053 | 3.2 ± 0.042 | 2.82 ± 0.051 |
| LQKEFLPHITQLEGFES [RPB2] | 1.9 ± 0.047 | 1.84 ± 0.041 | 1.69 ± 0.053 | 1.55 ± 0.025 |
| FLELTRRADVKTATVKI [RPL38] | 1.67 ± 0.05 | 1.77 ± 0.041 | 2.02 ± 0.077 | 1.2 ± 0.042 |
| QWSIEIVLLDDEGKEIP [TAF14] | 1.99 ± 0.06 | 2.1 ± 0.06 | 2.71 ± 0.066 | 2.75 ± 0.068 |
| MSESSDISAMQPVNPKP [SMX3] | 3.42 ± 0.15 | 3.51 ± 0.16 | 3.4 ± 0.12 | 3.17 ± 0.14 |
| DVLKDGENNINFQKASA [BRN1] | 3.31 ± 0.16 | 3.4 ± 0.12 | 3.51 ± 0.077 | 3.31 ± 0.11 |
| INGEDPANNHQLGLQTV [SMX2] | 2.93 ± 0.11 | 2.94 ± 0.1 | 2.9 ± 0.073 | 3.08 ± 0.06 |
| GGGAARRQAVDVSPLRR [RPS5] | 2.28 ± 0.1 | 1.76 ± 0.056 | 2.15 ± 0.11 | 1.85 ± 0.093 |
| RQNKVQHQRIVAFVCSP [RPN10] | 1.24 ± 0.069 | 1.4 ± 0.12 | – | 1.42 ± 0.12 |
| LKSSLADVLSILAMTYS [RPN1] | 1.7 ± 0.062 | 2.02 ± 0.12 | 1.89 ± 0.19 | 1.96 ± 0.059 |
| NGLIISWSNGKITSPIR [RRP42] | 3.12 ± 0.19 | 2.98 ± 0.14 | 3.2 ± 0.082 | 3.39 ± 0.12 |
| FKAIHGSQLRLSEWEEY [YCS4] | 1.27 ± 0.058 | 1.58 ± 0.05 | 2 ± 0.12 | 1.29 ± 0.029 |
| IILPLDNATLTELVDKA [SSN2] | 2.54 ± 0.11 | 3.16 ± 0.15 | 2.6 ± 0.099 | 1.95 ± 0.26 |
| GVEQLHYTGISQSACRE [SSN3] | 2.69 ± 0.089 | 2.38 ± 0.085 | 2.66 ± 0.13 | 2.56 ± 0.099 |
| KDSYINANTIETAKMIE [FAS2] | 3.14 ± 0.045 | 3.07 ± 0.044 | 3.18 ± 0.032 | 3.16 ± 0.044 |
| DGWVKLTYKSELSKSRA [YMR153W/NUP53] | 1.85 ± 0.062 | 1.88 ± 0.04 | 1.95 ± 0.083 | 1.84 ± 0.032 |
| PQDLTFNAGSNPPSYQS [RPB7] | 2.96 ± 0.17 | 2.99 ± 0.11 | 3.1 ± 0.17 | 2.86 ± 0.096 |
| HVKRITKIAQSQTMAET [ECM29] | 2.33 ± 0.057 | 2.46 ± 0.036 | 2.02 ± 0.061 | 2.07 ± 0.033 |
| PAKVAEEGINKFKKEKF [SRP54] | 3.2 ± 0.066 | 3.44 ± 0.059 | 3.38 ± 0.046 | 3.23 ± 0.057 |
| QQQIIKIRITLTSTKVK [RPS20] | 1.91 ± 0.056 | 1.84 ± 0.048 | 1.59 ± 0.1 | 2.71 ± 0.043 |
| DLSISALLGDKIYNFGE [RPN9] | 3.08 ± 0.068 | 3.11 ± 0.065 | 3.15 ± 0.061 | 3.12 ± 0.091 |

| Sequence | protein stability index (doa10∆) | protein stability index (pdr5∆) | protein stability index (san1∆) | protein stability index (ubr1∆) |
| --- | --- | --- | --- | --- |
| VFVGSGKGTGKTAMAEL [BRR2] | 3.29 ± 0.12 | 3.54 ± 0.15 | 3.44 ± 0.071 | 3.41 ± 0.098 |
| NGKVQYFLRRQYILQIV [YJL039C/NUP192] | 1.42 ± 0.054 | 1.56 ± 0.07 | 1.33 ± 0.18 | 1.45 ± 0.053 |
| IIRPILGKVRFANYKLL [SRB4] | 1.44 ± 0.045 | 1.75 ± 0.043 | 1.14 ± 0.1 | 1.73 ± 0.057 |
| IPTTKNLRLLVEENRVR [DLS1] | – | 3.08 ± 0.1 | 2.87 ± 0.097 | 2.12 ± 0.061 |
| RSLLQEAIETCKNFEKT [GAL11] | – | 3.14 ± 0.15 | 2.59 ± 0.19 | 3.09 ± 0.081 |
| KEAALKTMIKTIEKDKM [SMC2] | 2.8 ± 0.17 | 1.83 ± 0.14 | 1.57 ± 0.13 | 2.03 ± 0.061 |
| DRKNRAPPQRPRFNREN [RPS26A] | 2.81 ± 0.11 | 2.64 ± 0.082 | 3.29 ± 0.11 | 3.02 ± 0.091 |
| QVSEVDPGRYNKVCRIE [RPB8] | 3.07 ± 0.13 | 3.04 ± 0.081 | 2.65 ± 0.084 | 2.93 ± 0.06 |
| KFSERRKALPKEPKKLL [DSN1] | 2.33 ± 0.069 | 2.88 ± 0.081 | 2.52 ± 0.11 | 2.87 ± 0.053 |
| QKEEGRSFTKAIEDAKK [YLR335W/NUP2] | 3.1 ± 0.11 | 3.06 ± 0.085 | 3.05 ± 0.086 | 2.8 ± 0.069 |
| SLQDRSSLVRRNSVKLL [YCS4] | 2.02 ± 0.055 | 2.12 ± 0.049 | 1.94 ± 0.062 | 1.56 ± 0.027 |
| KLWAEIIVKILYYRPHI [GRR1] | 1.4 ± 0.064 | 2.02 ± 0.071 | 1.19 ± 0.15 | 1.46 ± 0.073 |
| LYNVMGINKKKLLAISK [RPC31] | 2.83 ± 0.26 | 2.3 ± 0.16 | 3.67 ± 0.095 | 3.5 ± 0.26 |
| TVVQVYDNGQVFPSSIL [RPP0] | 1.19 ± 0.059 | 1.29 ± 0.13 | – | 1.29 ± 0.14 |
| SPNFKNYLKYLEYWCNP [SOH1] | 2.32 ± 0.055 | 2.34 ± 0.056 | 1.88 ± 0.053 | 2.71 ± 0.06 |
| QSSLDVAGLEDKFRKAC [SIR3] | 3.62 ± 0.14 | 3.18 ± 0.16 | 3.42 ± 0.13 | 3.06 ± 0.21 |
| EARINELLSSLEGKGSL [RPP2B] | 2.74 ± 0.12 | 2.79 ± 0.099 | 2.91 ± 0.047 | 3.2 ± 0.077 |
| LNELKAIKDKLEQDLHF [YIL149C/MLP2] | 3 ± 0.07 | 3.13 ± 0.069 | 2.82 ± 0.07 | 3.24 ± 0.063 |
| AAGANVDNVWADVYAKA [RPP1B] | 3.2 ± 0.096 | 3.16 ± 0.14 | 2.77 ± 0.14 | 2.96 ± 0.12 |
| VKYMPEQKITEIEDGQD [RPO21] | 3.19 ± 0.12 | 3.12 ± 0.099 | 2.98 ± 0.098 | 3.19 ± 0.069 |
| GTLEGHNGWVTSLATSA [ASC1] | 2.61 ± 0.063 | 1.87 ± 0.069 | 1.74 ± 0.15 | 1.67 ± 0.066 |
| QNMQQSLQQMQHLQQLK [GAL11] | 2.96 ± 0.095 | 2.95 ± 0.07 | 2.94 ± 0.074 | 2.89 ± 0.098 |
| LILSGDTTANNGKVQYF [YJL039C/NUP192] | 2.89 ± 0.091 | 2.52 ± 0.086 | 2.9 ± 0.09 | 2.95 ± 0.064 |
| AKSDETKQASSFSFLNR [YLR335W/NUP2] | 3.35 ± 0.069 | 3.39 ± 0.099 | 3.26 ± 0.044 | 3.31 ± 0.05 |
| GMPNMPGMPNMPGMPNM [SRP54] | 3.37 ± 0.088 | 3.21 ± 0.064 | 3.13 ± 0.061 | 3.14 ± 0.051 |
